Measurements: patent US5773001 (American Cyanamid Company, dated 1998)
Like-named read-outs stand apart in the source and are kept apart here.

Key:
CD33 antigen (human) [1] = biological target: CD33 antigen (human) (UniProt P20138)
CD33 antigen (human) [2] = biological target: CD33 antigen (human) (UniProt P20138); remark: listed apart in the source
CD33 antigen (human) [3] = biological target: CD33 antigen (human) (UniProt P20138); assay: competition with 125I-labelled native antibody on HEL 92.1.7 cells; IC50 (reference) / IC50 (sample)
CD33 antigen (human) [4] = biological target: CD33 antigen (human) (UniProt P20138); remark: listed apart in the source
CD33 antigen (human) [5] = biological target: CD33 antigen (human) (UniProt P20138); remark: listed apart in the source
[6] = biological target: T1, glycoprotein antigen present on colon cancer cells, recognized by A33 (Homo sapiens (Human)) (UniProt Q99795); assay: competition with 125I-labelled native antibody on COLO 205 cells; IC50 (reference) / IC50 (sample)
T1 sequence: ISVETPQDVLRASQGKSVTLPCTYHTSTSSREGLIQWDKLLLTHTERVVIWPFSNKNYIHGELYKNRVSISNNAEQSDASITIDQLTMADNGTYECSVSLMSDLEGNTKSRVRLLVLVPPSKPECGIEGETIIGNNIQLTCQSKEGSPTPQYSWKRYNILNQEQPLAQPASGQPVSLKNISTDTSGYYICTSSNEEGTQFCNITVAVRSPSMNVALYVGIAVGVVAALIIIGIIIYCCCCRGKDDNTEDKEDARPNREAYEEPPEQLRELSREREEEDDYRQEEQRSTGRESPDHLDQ

[7] = biological target: T1, glycoprotein antigen present on colon cancer cells, recognized by A33 (Homo sapiens (Human))
CD33 antigen (human) [8] = biological target: CD33 antigen (human) (UniProt P20138); remark: listed apart in the source
CD33 antigen (human) [9] = biological target: CD33 antigen (human) (UniProt P20138); remark: listed apart in the source
CD33 antigen (human) [10] = biological target: CD33 antigen (human) (UniProt P20138); remark: listed apart in the source
CD33 antigen (human) [11] = biological target: CD33 antigen (human) (UniProt P20138); remark: listed apart in the source
[12] = biological target: T1, glycoprotein antigen present on colon cancer cells, recognized by A33 (Homo sapiens (Human)); remark: listed apart in the source
CD33 antigen (human) [13] = biological target: CD33 antigen (human) (UniProt P20138); remark: listed apart in the source
CD33 antigen (human) [14] = biological target: CD33 antigen (human) (UniProt P20138); remark: listed apart in the source
CD33 antigen (human) [15] = biological target: CD33 antigen (human) (UniProt P20138); remark: listed apart in the source
CD33 antigen (human) [16] = biological target: CD33 antigen (human) (UniProt P20138); remark: listed apart in the source
CD33 antigen (human) [17] = biological target: CD33 antigen (human) (UniProt P20138); remark: listed apart in the source
CD33 antigen (human) [18] = biological target: CD33 antigen (human) (UniProt P20138); assay: competition with 125I-labelled native antibody on HEL 92.1.7 cells; IC50 (reference) / IC50 (sample); remark: listed apart in the source
CD33 antigen (human) [19] = biological target: CD33 antigen (human) (UniProt P20138); remark: listed apart in the source
CD33 antigen (human) [20] = biological target: CD33 antigen (human) (UniProt P20138); remark: listed apart in the source
CD33 antigen (human) [21] = biological target: CD33 antigen (human) (UniProt P20138); remark: listed apart in the source
CD33 antigen (human) [22] = biological target: CD33 antigen (human) (UniProt P20138); remark: listed apart in the source
CD33 antigen (human) [23] = biological target: CD33 antigen (human) (UniProt P20138); remark: listed apart in the source
CD33 antigen (human) [24] = biological target: CD33 antigen (human) (UniProt P20138); remark: listed apart in the source
CD33 antigen (human) [25] = biological target: CD33 antigen (human) (UniProt P20138); remark: listed apart in the source

Work on “Conjugate of 4-4-(3-oxobutyl)phenoxy!butanoic acid (16) condensed with Calicheamicin N-acetyl gamma dimethyl hydrazide and m-P67.6 (antibody)” yielded an In vitro IC50 (3H-thymidine incorporation) (CD33 antigen (human) [1]) of 9 ng/mL.

“Conjugate of 4-(2-acetyl-5-methoxyphenoxy!butanoic acid (17) condensed with Calicheamicin N-acetyl gamma dimethyl hydrazide and m-P67.6 (antibody)” showed an In vitro IC50 (3H-thymidine incorporation) (CD33 antigen (human) [2]) of 0.0098 ng/mL and a Rel. Affinity (CD33 antigen (human) [3]) of 1.2.

“Conjugate of 4-(4-acetyl-2-methylphenoxy)butanoic acid (10) condensed with Calicheamicin N-acetyl gamma dimethyl hydrazide and m-P67.6 (antibody)” was tested, and the In vitro IC50 (3H-thymidine incorporation) (CD33 antigen (human) [4]) was 0.041 ng/mL and the Rel. Affinity (CD33 antigen (human) [3]) was 1.07.

“Conjugate of 4-4-(3-oxopropyl)phenoxy!butanoic acid (18) condensed with Calicheamicin N-acetyl gamma dimethyl hydrazide and m-P67.6 (antibody)” showed an In vitro IC50 (3H-thymidine incorporation) (CD33 antigen (human) [5]) of 0.62 ng/mL and a Rel. Affinity (CD33 antigen (human) [3]) of 1.21.

In the case of “Conjugate of 4-(4-acetylphenoxy)butanoic acid (7) condensed with calicheamicin N-acetyl gamma dimethyl hydrazide and h-A33 (antibody)”, the Rel. Affinity [6] is reported as 1.13 and the In vitro IC50 (3H-thymidine incorporation) [7] is reported as 4.03 ng/mL.

With “Conjugate of 4-formylbenzenepropanoic acid (12) condensed with Calicheamicin N-acetyl gamma dimethyl hydrazide and m-P67.6 (antibody)” the In vitro IC50 (3H-thymidine incorporation) (CD33 antigen (human) [8]) was 0.12 ng/mL and the Rel. Affinity (CD33 antigen (human) [3]) was 0.73.

With “Conjugate of 4-(4-formyl-2-methoxyphenoxy)butanoic acid (11) condensed with Calicheamicin N-acetyl gamma dimethyl hydrazide and m-P67.6 (antibody)” the In vitro IC50 (3H-thymidine incorporation) (CD33 antigen (human) [9]) was 0.13 ng/mL and the Rel. Affinity (CD33 antigen (human) [3]) was 0.22.

“Conjugate of 4-(2,3-Dimethoxy-5-formylphenoxy)butanoic acid (13) condensed with Calicheamicin N-acetyl gamma dimethyl hydrazide and m-P67.6 (antibody)” showed an In vitro IC50 (3H-thymidine incorporation) (CD33 antigen (human) [10]) of 0.062 ng/mL and a Rel. Affinity (CD33 antigen (human) [3]) of 1.08.

With “Conjugate of 4-(4-formylphenoxy)butanoic acid (9) condensed with Calicheamicin N-acetyl gamma dimethyl hydrazide and m-P67.6 (antibody)” the In vitro IC50 (3H-thymidine incorporation) (CD33 antigen (human) [11]) was 0.087 ng/mL and the Rel. Affinity (CD33 antigen (human) [3]) was 0.7.

In the case of “Conjugate of 4-(4-acetylphenoxy)butanoic acid (7) condensed with calicheamicin gamma dimethyl hydrazide and h-A33 (antibody)”, the In vitro IC50 (3H-thymidine incorporation) [12] is reported as 3.55 ng/mL and the Rel. Affinity [6] is reported as 0.91.

Molecule “Conjugate of 4-(3-formylphenoxy)butanoic acid (8) condensed with Calicheamicin N-acetyl gamma dimethyl hydrazide and m-P67.6 (antibody)” has an In vitro IC50 (3H-thymidine incorporation) (CD33 antigen (human) [13]) of 0.38 ng/mL and a Rel. Affinity (CD33 antigen (human) [3]) of 1.

“Conjugate of 4-(2-acetyl-1-naphthalenyl)oxy! butanoic acid (20) condensed with Calicheamicin N-acetyl gamma dimethyl hydrazide and m-P67.6 (antibody)” gave an In vitro IC50 (3H-thymidine incorporation) (CD33 antigen (human) [14]) of 0.0067 ng/mL and a Rel. Affinity (CD33 antigen (human) [3]) of 0.66.

In the case of “Conjugate of 4-(4-acetyl-2-methoxyphenoxy)butanoic acid (15) condensed with Calicheamicin N-acetyl gamma dimethyl hydrazide and m-P67.6 (antibody)”, the In vitro IC50 (3H-thymidine incorporation) (CD33 antigen (human) [15]) is reported as 0.029 ng/mL and the Rel. Affinity (CD33 antigen (human) [3]) is reported as 0.8.

In the case of “Conjugate of 4-(4-acetyl-2,6-dimethoxyphenoxy)butanoic acid (14) condensed with Calicheamicin N-acetyl gamma dimethyl hydrazide and m-P67.6 (antibody)”, the Rel. Affinity (CD33 antigen (human) [3]) is reported as 1.18 and the In vitro IC50 (3H-thymidine incorporation) (CD33 antigen (human) [16]) is reported as 0.015 ng/mL.

B1: Conjugate of 4-(4-acetyl-2-methylphenoxy)butanoic acid (10) condensed with Calicheamicin N-acetyl gamma dimethyl hydrazide and h-P67.6 (antibody, V domains shown)
VH: EVQLVQSGAEVKKPGSSVKVSCKASGYTITDSNIHWVRQAPGQSLEWIGYIYPYNGGTDYNQKFKNRATLTVDNPTNTAYMELSSLRSEDTDFYYCVNGNPWLAYWGQGTLVTVSS
VL: DIQLTQSPSTLSASVGDRVTITCRASESLDNYGIRFLTWFQQKPGKAPKLLMYAASNQGSGVPSRFSGSGSGTEFTLTISSLQPDDFATYYCQQTKEVPWSFGQGTKVEVKR
modifications: drug-linker amide on lysine side chains, sites not stated; drug-linker amide on lysine side chains, sites not stated
B1 was tested, and the In vitro IC50 (3H-thymidine incorporation) (CD33 antigen (human) [17]) was 0.45 ng/mL and the Rel. Affinity (CD33 antigen (human) [18]) was 1.16.

B2: Conjugate of 4-(2-acetyl-5-methoxyphenoxy!butanoic acid (17) condensed with Calicheamicin N-acetyl gamma dimethyl hydrazide and h-P67.6 (antibody, V domains shown)
VH: B1 VH
VL: B1 VL
modifications: drug-linker amide on lysine side chains, sites not stated; drug-linker amide on lysine side chains, sites not stated
In the case of B2, the Rel. Affinity (CD33 antigen (human) [18]) is reported as 0.98 and the In vitro IC50 (3H-thymidine incorporation) (CD33 antigen (human) [19]) is reported as 0.088 ng/mL.

B3: Conjugate of 4-(4-formyl-2-methoxyphenoxy)butanoic acid (11) condensed with Calicheamicin N-acetyl gamma dimethyl hydrazide and h-P67.6 (antibody, V domains shown)
VH: B1 VH
VL: B1 VL
modifications: drug-linker amide on lysine side chains, sites not stated; drug-linker amide on lysine side chains, sites not stated
With B3 the In vitro IC50 (3H-thymidine incorporation) (CD33 antigen (human) [20]) was 3.8 ng/mL and the Rel. Affinity (CD33 antigen (human) [18]) was 0.73.

B4: Conjugate of 4-(4-acetyl-2,6-dimethoxyphenoxy)butanoic acid (14) condensed with Calicheamicin N-acetyl gamma dimethyl hydrazide and h-P67.6 (antibody, V domains shown)
VH: B1 VH
VL: B1 VL
modifications: drug-linker amide on lysine side chains, sites not stated; drug-linker amide on lysine side chains, sites not stated
Work on B4 yielded an In vitro IC50 (3H-thymidine incorporation) (CD33 antigen (human) [21]) of 0.24 ng/mL and a Rel. Affinity (CD33 antigen (human) [18]) of 1.07.

B5: Conjugate of 4-4-(3-oxopropyl)phenoxy!butanoic acid (18) condensed with Calicheamicin N-acetyl gamma dimethyl hydrazide and h-P67.6 (antibody, V domains shown)
VH: B1 VH
VL: B1 VL
modifications: drug-linker amide on lysine side chains, sites not stated; drug-linker amide on lysine side chains, sites not stated
With B5 the In vitro IC50 (3H-thymidine incorporation) (CD33 antigen (human) [22]) was 1.1 ng/mL and the Rel. Affinity (CD33 antigen (human) [18]) was 0.8.

B6: Conjugate of 4-(4-acetyl-2-methoxyphenoxy)butanoic acid (15) condensed with Calicheamicin N-acetyl gamma dimethyl hydrazide and h-P67.6 (antibody, V domains shown)
VH: B1 VH
VL: B1 VL
modifications: drug-linker amide on lysine side chains, sites not stated; drug-linker amide on lysine side chains, sites not stated
B6 showed a Rel. Affinity (CD33 antigen (human) [18]) of 0.78 and an In vitro IC50 (3H-thymidine incorporation) (CD33 antigen (human) [23]) of 0.23 ng/mL.

B7: Conjugate of 4-formylbenzenepropanoic acid (12) condensed with Calicheamicin N-acetyl gamma dimethyl hydrazide and h-P67.6 (antibody, V domains shown)
VH: B1 VH
VL: B1 VL
modifications: drug-linker amide on lysine side chains, sites not stated; drug-linker amide on lysine side chains, sites not stated
Molecule B7 has an In vitro IC50 (3H-thymidine incorporation) (CD33 antigen (human) [24]) of 1 ng/mL and a Rel. Affinity (CD33 antigen (human) [18]) of 0.73.

B8: Conjugate of 4-(2,3-dimethoxy-5-formylphenoxy)butanoic acid (13) condensed with Calicheamicin N-acetyl gamma dimethyl hydrazide and h-P67.6 (antibody, V domains shown)
VH: B1 VH
VL: B1 VL
modifications: drug-linker amide on lysine side chains, sites not stated; drug-linker amide on lysine side chains, sites not stated
B8 showed a Rel. Affinity (CD33 antigen (human) [18]) of 1.16 and an In vitro IC50 (3H-thymidine incorporation) (CD33 antigen (human) [25]) of 1.1 ng/mL.
